In patent US20230357838:
Like-named read-outs stand apart in the source and are kept apart here.

How the values were obtained:
[1] = system: EcDa01 (Escherichia coli)
[2] = system: d22_PeDa01 (Pseudomonas entomophila)
[3] = 5fC at all four C of the listed strand sites
[4] = 5caC at all four C of the listed strand sites

With “AAATTTAATTATAAAACGATCGACGACGAAATAATAAAAA (double strand) [40 bp 5fC oligo]” as the sequence, how does the activity (fraction deaminated) [1, 3] read?
The activity (fraction deaminated) was 0.01.

And the activity (fraction deaminated) [2, 3]?
The activity (fraction deaminated) was 0.

With “AAATTTAATTATAAAACGATCGACGACGAAATAATAAAAA (double strand) [40 bp 5caC oligo]” as the sequence, how does the activity (fraction deaminated) [1, 4] read?
Its activity (fraction deaminated) is 0.

And the activity (fraction deaminated) [2, 4]?
The activity (fraction deaminated) was 0.

Which results are given for “AAATTTAATTATAAAACGATCGACGACGAAATAATAAAAA (double strand) [40 bp control C oligo]”?
activity (fraction deaminated) [1]: 0.6; activity (fraction deaminated) [2]: 0.14
